Key:
[1] = target: T1, mutated HER3(Y>F) in NRG1-beta1-stimulated Hek293 cells, 14 tyrosines of the intracellular domain replaced … (UniProt P21860 20-1342, limits assumed); assay: IHC (Ventana BenchMark XT), ssFab on 4xC18 linker, FFPE Hek293 cells
T1 construct: whole, on cells; also called mutated version of HER3 lacking the Tyr1289 phosphorylation site
Text: (§1) Hek293 cells had been transiently transfected with both HER2 and HER3 expression vectors. In one case an HER3 expression vector was used that encodes an mutated version of HER3, in which 14 tyrosines of the intracellular domain that serve as phosphorylation sites are replaced with phenylalanines (Y975F, Y1054F, Y1132F, Y1159F, Y1197F, Y1199F, Y1222F, Y1224F, Y1260F, Y1262F, Y1276F, Y1289F, Y1307F, Y1328F). Cells were fixed with formalin and embedded in paraffin according to standard protocols.
(§2) 1 μg/ml per ssFab fragment of only ssFab 7.2.32 or only ssFab 4.1.15, respectively, and an equimolar amount of 4×C18 linker, as well as a mixture of both ssFab′ fragments of ssFab 7.2.32 and ssFab 4.1.15 (both at 1 μg/ml) and an equimolar amount of 4×C18 linker, respectively, were used for detection. A biotin label within the linker molecule served as a detection tag for the streptavidin-based Ventana iVIEW DAB detection kit.

[2] = target: T2, wild-type HER3 in unstimulated Hek293 cells (transfected with HER2 and HER3) (UniProt P21860 20-1342, limits assumed); assay: as above
T2 construct: whole, on cells; also called HER3 (unstimulated cells)
T2 sequence (P21860 20-1342 limits assumed): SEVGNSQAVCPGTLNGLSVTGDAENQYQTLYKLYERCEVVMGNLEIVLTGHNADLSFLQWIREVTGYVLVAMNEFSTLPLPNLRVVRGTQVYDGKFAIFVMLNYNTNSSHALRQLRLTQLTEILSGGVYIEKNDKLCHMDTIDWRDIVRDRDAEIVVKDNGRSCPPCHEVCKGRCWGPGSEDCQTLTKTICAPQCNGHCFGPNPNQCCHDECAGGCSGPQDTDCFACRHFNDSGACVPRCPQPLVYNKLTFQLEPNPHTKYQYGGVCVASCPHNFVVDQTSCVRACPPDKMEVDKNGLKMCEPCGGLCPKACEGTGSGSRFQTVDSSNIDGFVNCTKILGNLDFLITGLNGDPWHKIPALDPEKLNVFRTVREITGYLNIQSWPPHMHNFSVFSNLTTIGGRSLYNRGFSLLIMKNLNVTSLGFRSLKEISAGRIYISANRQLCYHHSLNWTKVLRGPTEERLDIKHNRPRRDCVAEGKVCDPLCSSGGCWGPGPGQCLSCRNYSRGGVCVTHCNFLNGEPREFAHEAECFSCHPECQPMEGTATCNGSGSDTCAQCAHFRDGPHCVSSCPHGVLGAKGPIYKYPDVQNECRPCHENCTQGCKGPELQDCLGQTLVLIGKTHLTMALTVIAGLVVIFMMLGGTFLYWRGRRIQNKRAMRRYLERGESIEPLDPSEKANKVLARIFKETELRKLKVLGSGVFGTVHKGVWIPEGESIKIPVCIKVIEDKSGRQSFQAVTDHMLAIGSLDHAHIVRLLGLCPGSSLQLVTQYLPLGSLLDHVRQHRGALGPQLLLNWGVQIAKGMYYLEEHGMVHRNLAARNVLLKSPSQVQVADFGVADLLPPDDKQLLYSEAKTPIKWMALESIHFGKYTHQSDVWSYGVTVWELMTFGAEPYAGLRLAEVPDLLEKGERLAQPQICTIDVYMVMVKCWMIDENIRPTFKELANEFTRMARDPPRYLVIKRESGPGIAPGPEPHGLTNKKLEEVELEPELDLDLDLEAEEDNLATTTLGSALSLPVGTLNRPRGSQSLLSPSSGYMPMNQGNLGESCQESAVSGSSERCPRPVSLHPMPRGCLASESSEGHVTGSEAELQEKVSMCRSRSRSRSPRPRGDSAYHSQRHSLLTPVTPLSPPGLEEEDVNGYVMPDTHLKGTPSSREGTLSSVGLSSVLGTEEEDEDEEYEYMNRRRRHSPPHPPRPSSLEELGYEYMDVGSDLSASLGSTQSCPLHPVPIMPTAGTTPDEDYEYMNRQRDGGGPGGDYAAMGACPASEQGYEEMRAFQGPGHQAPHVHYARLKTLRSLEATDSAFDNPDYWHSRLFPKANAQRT
Text: as §1, §2

[3] = target: T1, mutated HER3(Y>F) in …; assay: IHC (Ventana BenchMark XT), FFPE Hek293 cells
Experimental: The IHC experiments were performed on the BenchMark XT platform from Ventana. For the assay an anti-pHER3 dual binder was used that consisted of ssFab 7.2.32 (binding a non-phospho epitope of the intracellular domain of HER3), ssFab 4.1.15 (binding the pTyr1289 phospho-epitope of the intracellular domain of HER3) and a flexible linker. […] A biotin label within the linker molecule served as a detection tag for the streptavidin-based Ventana iVIEW DAB detection kit.
In order to test the specificity of the anti-pHER3 dual binder molecule an elaborate test system based on formalin-fixed paraffin-embedded (FFPE) Hek293 cells was used. Hek293 cells had been transiently transfected with both HER2 and HER3 expression vectors. In one case an HER3 expression vector was used that encodes an mutated version of HER3, in which 14 tyrosines of the intracellular domain that serve as phosphorylation sites are replaced with phenylalanines (Y975F, Y1054F, Y1132F, Y1159F, Y1197F, Y1199F, Y1222F, Y1224F, Y1260F, Y1262F, Y1276F, Y1289F, Y1307F, Y1328F). Cells were fixed with formalin and embedded in paraffin according to standard protocols. […]

T1 sequence (P21860 other isoform, or with tags, fused parts or gaps limits assumed, change not shown): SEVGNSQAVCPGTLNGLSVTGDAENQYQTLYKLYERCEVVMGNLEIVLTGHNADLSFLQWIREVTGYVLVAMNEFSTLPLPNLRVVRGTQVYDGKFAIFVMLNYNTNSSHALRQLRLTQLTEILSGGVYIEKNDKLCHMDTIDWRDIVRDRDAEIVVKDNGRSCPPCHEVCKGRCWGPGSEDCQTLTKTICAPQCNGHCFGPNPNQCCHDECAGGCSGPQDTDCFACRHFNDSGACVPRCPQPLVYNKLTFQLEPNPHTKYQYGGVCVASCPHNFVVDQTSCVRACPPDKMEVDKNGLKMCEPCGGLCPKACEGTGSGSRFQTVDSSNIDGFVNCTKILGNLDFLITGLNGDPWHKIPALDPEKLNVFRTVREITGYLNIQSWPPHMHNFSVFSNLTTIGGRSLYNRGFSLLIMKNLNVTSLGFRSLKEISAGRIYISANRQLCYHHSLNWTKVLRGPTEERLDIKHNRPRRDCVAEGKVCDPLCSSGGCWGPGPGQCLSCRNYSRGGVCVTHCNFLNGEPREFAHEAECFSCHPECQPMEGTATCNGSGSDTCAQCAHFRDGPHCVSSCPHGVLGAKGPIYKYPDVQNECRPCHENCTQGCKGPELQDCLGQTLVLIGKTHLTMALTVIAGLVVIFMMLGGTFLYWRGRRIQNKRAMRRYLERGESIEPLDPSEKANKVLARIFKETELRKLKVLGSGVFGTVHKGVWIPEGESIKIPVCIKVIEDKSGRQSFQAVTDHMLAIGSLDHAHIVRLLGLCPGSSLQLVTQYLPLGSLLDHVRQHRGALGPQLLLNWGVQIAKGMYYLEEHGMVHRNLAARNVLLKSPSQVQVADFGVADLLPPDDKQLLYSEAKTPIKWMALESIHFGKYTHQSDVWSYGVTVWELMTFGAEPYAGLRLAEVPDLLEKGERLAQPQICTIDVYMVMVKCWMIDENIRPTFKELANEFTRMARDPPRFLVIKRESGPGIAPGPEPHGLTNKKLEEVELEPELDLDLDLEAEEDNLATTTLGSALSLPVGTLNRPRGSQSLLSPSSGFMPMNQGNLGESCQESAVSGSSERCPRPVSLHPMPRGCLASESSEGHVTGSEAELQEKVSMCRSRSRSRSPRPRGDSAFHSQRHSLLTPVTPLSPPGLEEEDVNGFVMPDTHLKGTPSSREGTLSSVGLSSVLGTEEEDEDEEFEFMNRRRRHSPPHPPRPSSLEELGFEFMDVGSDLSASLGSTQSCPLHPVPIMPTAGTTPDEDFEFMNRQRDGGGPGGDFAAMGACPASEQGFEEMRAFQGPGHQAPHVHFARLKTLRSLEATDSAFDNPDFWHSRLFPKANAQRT

binding result [1] | binding result [2] | binding result [3] | Binder
no binding (tested: 1 µg/ml) | no binding (tested: 1 µg/ml) | – | ssFab 4.1.15 (recombinant Fab 4.1.15 conjugated to the 17 mer oligo by sortase) (Fab, V domains shown, also called Fab-Oligo 4.1.15) VH: EVQLQESGPELVKPGTSVTISCKTSGYAFSNSWMSWVKQRPGQGLEWIGRIFPGNGDTDYNGNFRAKATLTADKSSSTAFMQLSRLTSVDSAVYFCARSRGLRQGAGFAYWGQGTLVTVSA VL: not shown
– | – | no binding (tested: 1 µg/ml per ssFab) | anti-pHER3 dual binder consisting of ssFab 7.2.32, ssFab 4.1.15 and a flexible linker with a 4xC18 spacer (linker 12 of example 2.4) (bispecific antibody, V domains shown, Two recombinant Fab-oligo conjugates hybridised on biotinylated linker 12 ((Spacer C18)2-(Biotin-dT)-(Spacer C18)2)) VH 1: EFEVQLQESGGGLVQPKGSLQLSCAASGFTFNTYAMHWVRQAPGKGLEWVARIRTESSDYATDYADSVKDRFIISRDDSQNMLYLQMNNLKSEDTAIYYCVRSSGFDYWGQGTTLTVSSS VL 1: DIQMTQSPSLPVSLGDQASISCRSSQSLVHDNGNTYLHWFLQKPGQSPKLLIYKVSNRFSGVPDRFGGSGSGTDFTLKISGVEAEDLGVYFCSQGTHVPTFGGGTKLEIK VH 2: EFEVQLQESGPELVKPGTSVTISCKTSGYAFSNSWMSWVKQRPGQGLEWIGRIFPGNGDTDYNGNFRAKATLTADKSSSTAFMQLSRLTSVDSAVYFCARSRGLRQGAGFAYWGQGTLVTVSA VL 2: not shown
